This note sets out measurements from US20190367631A1 (Regeneron, published 2019).

Substitutions are numbered along the chain they refer to. Names may count otherwise.

Experiment [1] concerns the target T1, human MSR1 extracellular domain expressed with a N-terminal nonahistidine tag (His9-hMSR1); R&D Systems, Cat … (human, UniProt P21757 77-451).
T1 construct: extracellular domain; Bought reagent; also called His-hMSR1; 9xHis-hMSR1
T1 sequence: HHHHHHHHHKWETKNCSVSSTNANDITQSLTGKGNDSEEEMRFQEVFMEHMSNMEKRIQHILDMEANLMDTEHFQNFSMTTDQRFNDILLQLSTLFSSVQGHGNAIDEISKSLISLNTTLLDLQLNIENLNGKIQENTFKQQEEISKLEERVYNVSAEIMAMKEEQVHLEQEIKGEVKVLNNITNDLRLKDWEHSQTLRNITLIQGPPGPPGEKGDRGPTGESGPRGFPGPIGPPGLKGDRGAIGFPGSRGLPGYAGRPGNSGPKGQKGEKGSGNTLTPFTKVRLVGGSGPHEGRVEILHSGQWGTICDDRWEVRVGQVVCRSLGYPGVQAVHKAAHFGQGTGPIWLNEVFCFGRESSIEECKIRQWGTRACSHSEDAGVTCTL
Nature of the experiment: SPR Biacore T200, 25 C, antibody captured by anti-human Fc, His9-hMSR1 injected.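 Further: running buffer HBS-ET pH 7.4, rates from sensorgrams fitted to a 1:1 model including mass transport limitation, KD and half-life derived from the kinetic constants.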

Experiment [2] deals with T1, human MSR1 extracellular domain …. Nature of the experiment: SPR Biacore T200, 25 C, antibody captured by anti-human Fc, His9-hMSR1 injected; no dissociation seen, kd fixed at 1.00E-05.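 Further: running buffer HBS-ET pH 7.4, rates from sensorgrams fitted to a 1:1 model including mass transport limitation, KD and half-life derived from the kinetic constants.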
Description: All binding studies were performed in 10 mM HEPES, 300 mM NaCl, 3 mM EDTA, and 0.05% v/v Surfactant Tween-20, pH 7.4 (HBS-ET) running buffer at 25° C.
The association rate (kₐ) and dissociation rate (kd) were determined by fitting the real-time binding sensorgrams to a 1:1 binding model with mass transport limitation using Scrubber 2.0c curve-fitting software. Binding dissociation equilibrium constant (KD) and dissociative half-life (t½) were calculated from the kinetic rates as:
Experiment [3] addresses T2, human MSR1 extracellular domain expressed with a N-terminal nonahistidine tag (human, UniProt P21757 77-451).
T2 construct: extracellular domain; also called His9-hMSR1; His-hMSR1
T2 sequence: T1 sequence
Nature of the experiment: competition ELISA, plate-coated His9-hMSR1; 100 nM antibody, competitor ligand Ac-LDL.
Description: (§1) Buffer alone was also added to wells on each coat. […] This assay was conducted in four different assay runs.
(§2) Data analysis was performed using a sigmoidal dose-response model within Prism™ software (GraphPad).

In experiment [4] the target is T2, human MSR1 extracellular domain …. Nature of the experiment: competition ELISA, plate-coated His9-hMSR1; 300 nM antibody, competitor ligand biot-AGE-BSA.
Description: as §1, §2
Experiment [5] concerns the target T3, mouse MSR1 extracellular domain expressed with a N-terminal nonahistidine tag (His9-mMSR1); R&D Systems, Cat … (mouse, UniProt P30204 79-458).
T3 construct: extracellular domain; not shown: N-terminal nonahistidine tag
T3 sequence (looked up): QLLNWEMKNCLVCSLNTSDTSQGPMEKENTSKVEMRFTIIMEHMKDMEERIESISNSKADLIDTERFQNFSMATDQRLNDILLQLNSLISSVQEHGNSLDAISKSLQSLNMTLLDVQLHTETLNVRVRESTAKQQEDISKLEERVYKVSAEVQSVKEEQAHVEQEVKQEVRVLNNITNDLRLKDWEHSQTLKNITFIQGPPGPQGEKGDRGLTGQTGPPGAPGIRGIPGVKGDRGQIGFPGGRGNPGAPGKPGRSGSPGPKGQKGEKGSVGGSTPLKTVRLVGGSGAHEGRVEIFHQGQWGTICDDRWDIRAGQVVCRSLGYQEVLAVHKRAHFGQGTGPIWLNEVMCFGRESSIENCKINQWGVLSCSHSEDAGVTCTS
Nature of the experiment: BLI Octet, 25 C, antibody captured.

In experiment [6] the target is T4, mouse MSR1 on RAW264.7 cells (mouse, UniProt P30204 1-458).
T4 construct: whole, on cells; also called MSR1 positive RAW264.7 cells
T4 sequence (looked up): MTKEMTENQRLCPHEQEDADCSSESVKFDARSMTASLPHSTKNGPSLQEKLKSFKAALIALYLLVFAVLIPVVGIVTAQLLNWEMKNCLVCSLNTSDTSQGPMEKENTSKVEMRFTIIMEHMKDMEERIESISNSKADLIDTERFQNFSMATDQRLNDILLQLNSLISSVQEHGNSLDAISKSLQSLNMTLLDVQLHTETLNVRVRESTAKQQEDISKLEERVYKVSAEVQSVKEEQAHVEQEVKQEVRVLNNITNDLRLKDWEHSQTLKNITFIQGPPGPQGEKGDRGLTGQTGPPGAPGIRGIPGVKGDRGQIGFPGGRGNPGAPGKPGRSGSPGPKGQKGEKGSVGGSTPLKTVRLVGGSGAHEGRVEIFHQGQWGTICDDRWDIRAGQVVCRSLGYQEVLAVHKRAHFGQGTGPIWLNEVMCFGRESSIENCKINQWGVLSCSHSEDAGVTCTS
In words: flow cytometry, RAW264.7 cells.
Description: To block binding to Fc receptors, RAW264.7 cells were incubated for 30 minutes at 4° C. with 500 pg/mL mouse IgG (Jackson ImmunoResearch, Cat #015-000-003) diluted in staining buffer, while B16F10.9 cells remained in staining buffer. […] The signal to noise (S/N) was determined by calculating the ratio of the anti-MSR1 antibodies or the control antibodies MFI to the unstained sample MFI (Table 11).

In experiment [7] the target is T5, full length human MSR1 with a C-terminal Myc tag, on HEK293.Myc.hMSR1 cells (human, UniProt P21757 1-451).
T5 sequence (looked up): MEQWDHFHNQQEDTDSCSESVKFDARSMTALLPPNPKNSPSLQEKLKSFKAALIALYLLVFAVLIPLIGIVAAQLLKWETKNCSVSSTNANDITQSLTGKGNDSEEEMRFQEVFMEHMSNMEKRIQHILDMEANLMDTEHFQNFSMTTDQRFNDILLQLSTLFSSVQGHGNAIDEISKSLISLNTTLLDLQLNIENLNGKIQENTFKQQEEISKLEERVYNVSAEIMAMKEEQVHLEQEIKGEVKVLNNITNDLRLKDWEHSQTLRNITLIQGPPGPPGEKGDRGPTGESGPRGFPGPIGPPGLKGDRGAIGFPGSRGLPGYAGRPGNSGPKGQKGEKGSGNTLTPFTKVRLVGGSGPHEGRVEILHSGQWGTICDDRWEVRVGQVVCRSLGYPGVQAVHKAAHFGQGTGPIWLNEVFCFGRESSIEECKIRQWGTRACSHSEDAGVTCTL
Nature of the experiment: cell-based or functional assay.

B1: H1H27731P-N297Q-LP1 (antibody, V domains shown)
VH: QLQLQESGPGLVKPSETLSLTCTVSGGSISRISYYWGWIRQPPGKGLEWIGSIYDSGSTYYNPSLKSRVTISIDTSKNQFSLKLSSVTAADTAVYYCVRYSSSSAFAFDYWGQGTLVTVSS
VL: DIQMTQSPSSVSASVGDRVTITCRASQGISSWLAWYQQKPGKAPKLLIYAASSLQSGVPSRFSGSGSGTDFTLTISSLQPEDFATYYCQQANSFPFTFGPGTKVDIKR
modifications: LXR agonist linker-payload LP1 clicked to azido-PEG3-amine on Q295 and Q297 (EU) of the heavy chain constant region
notes: antibody-drug conjugate; human IgG1 Fc with N297Q (EU); also called H1H27731P-LP1
B1 came in with a kon in experiment [1] of 128000 M⁻¹ s⁻¹. Moreover, in experiment [2], the Kd is at most 0.078 nM, the off-rate constant (koff) was at most 1e-05 s⁻¹ and the t½ is at least 19.3 h.

B2: H1H27754P-N297Q-LP1 (antibody, human IgG1, V domains shown)
VH: EVQLVESGGGLVQPGGSLRLSCAASGFTFRTYAMTWVRQAPGKGLDWVSAITGDGGNTYYADSVKGRFTISRDNSKNTLYLQMNSLRAEDTAIYYCAKDQRFSFALYYFDYWGQGTLVTVSS
VL: B1 VL with K42N, S52F, S93N, F96W, P100Q, D105E
modifications: LXR agonist linker-payload LP1 clicked to azido-PEG3-amine on Q295 and Q297 (EU) of the heavy chain constant region
notes: antibody-drug conjugate; human IgG1 Fc with N297Q (EU); also called H1H27754P-LP1
B2 yielded an on-rate (kon) in experiment [1] of 177000 M⁻¹ s⁻¹. In experiment [2], this molecule displayed a dissociation constant (Kd) of at most 0.0564 nM, an off-rate constant (koff) of at most 1e-05 s⁻¹ and a t½ of at least 19.3 h.

B3: H1H27754P-N297Q (antibody, human IgG1, V domains shown)
VH: B2 VH
VL: B1 VL with K42N, S52F, S93N, F96W, P100Q, D105E
notes: human IgG1 Fc with N297Q (EU)
As to B3, the on-rate constant (kon) in experiment [1] came to 200000 M⁻¹ s⁻¹. Further, in experiment [2], the Kd was at most 0.0499 nM, the koff is at most 1e-05 s⁻¹ and the t½ is at least 19.3 h.

B4: H1H27778P2-N297Q (antibody, human IgG1, V domains shown)
VH: EVQLVESGGGLEQPGGSLRLSCAASGFTFSSYAMSWVRQAPGKGLEWVSVISGSGGYTNYADSVKGRFTISRDNSKNTLYLQMNRLRAEDSAVYYCARHNWNYDYYGMDVWGQGTTVTVSS
VL: not shown
notes: Human IgG1 Fc with N297Q; also called H1H27778P-N297Q
In the case of B4, the “% Blocking” value is -40% in experiment [3] and -8% in experiment [4].

B5: H2aM25690N (antibody, V domains shown)
VH: EVQLLESGGGLVQPGGSLRLSCAASGFTFSNYAMTWVRQAPGTGLEWVSAISGRGSNTYYTDSVKGRFTISRDNSKNMLYLQMNSLRAEDTASYYCAKDRFTTVGNWFDPWGQGTLVTVSS
VL: DIQMTQSPSSLSASVGDRVTITCRASQSISSYLNWYQQKPGKAPKLLIYAASSLQNGVPSRFSGSGSGTDFTLTISSLQPEDFATYYCQQSYSSLPITFGQGTRLDIKR
notes: Human variable domains with mouse IgG2a Fc; tied by the numerical identifier
Consider B5, for which, in experiment [5], the binding result is reported as “no binding (tested: 100 nM)”.

B6: H1H27766P-N297Q (antibody, human IgG1, V domains shown)
VH: EVQLVESGGGLVQPGGSLRLSCAASGFTFSSFAMSWVRQAPGKELEWVSSISGRGGSTYYADSVRGRFTISRDNSKITLYLQMNSLRAEDTAVYYCAKDIVFRYTSSAYWYFDLWGRGTLVTVSS
VL: not shown
notes: human IgG1 Fc with N297Q (EU); also called H1H27766P2-N297Q
B6 came in with an on-rate (kon) in experiment [1] of 172000 M⁻¹ s⁻¹. In experiment [2], this molecule displayed a Kd of at most 0.0583 nM, a koff of at most 1e-05 s⁻¹ and a t½ of at least 19.3 h.

B7: H1H21234N-N297Q-LP1 (antibody, human IgG1, V domains shown)
VH: QVQLQESGPGLVKPSETLSLTCTVTGGSISRNYWSWIRQPPGKGLEWIGYIYYSGSIDYNPSLKSRVTISVDTSKNQFSLKLSSMTAADTAVYYCARDRWNWKYGMDVWGQGTTVIVSS
VL: EIVLTQSPGTLSLSPGERATLSCRASQTVRNNYLAWYHQKPGQAPRLLIYGASSRATGIPDRFSGSGSGTDFTLTISRLEPEDFTVYYCHQYGNSPWTFGQGTKMEIKR
modifications: LXR agonist linker-payload LP1 clicked to azido-PEG3-amine on Q295 and Q297 (EU) of the heavy chain constant region
notes: antibody-drug conjugate; human IgG1 Fc with N297Q (EU); also called H1H21234N-LP1
B7: the kon in experiment [1] came to 490000 M⁻¹ s⁻¹. In experiment [2], this molecule showed a Kd of at most 0.0204 nM, a koff of at most 1e-05 s⁻¹ and a t½ of at least 19.3 h.

B8: H1H27732P-N297Q (antibody, human IgG1, V domains shown)
VH: QLQLQESGPGLVKPSETLSLTCTVSGGSISSSTYYWGWIRQPPGKGLEWIGSFYYSGSTYYNPSLKSRVTISVGTSKNQFSLKLSSVTAADTAVYFCARGGLLGRPFVIWGQGTMVTVSS
VL: DIQMTQSPSSLSASVGDRVTITCRASQGIRNDLGWYQQKPGKAPKRLIYAASSLQSGVPSRFSGSGSGTEFTLTISSLQPEDFATYYCLQHNSYPLTFGGGTKVEIKR
notes: human IgG1 Fc with N297Q
In the case of B8, in experiment [6], the MFI turned out to be 3420 MFI and the “S/N (MFI over unstained MFI)” value turned out to be 1. Further, in experiment [7], the “% Inhibition of Dil-Acetylated LDL uptake” value is 62% and the “% Inhibition of Dil-Oxidized LDL uptake” value came out at 86%.

B9: H1H27732P-N297Q (antibody, human IgG1, V domains shown)
VH: B8 VH
VL: B8 VL
notes: human IgG1 Fc with N297Q (EU)
As for B9, in experiment [2], the Kd was at most 0.045 nM and the t½ was at least 19.3 h.

B10: H1H27732P-N297Q-LP1 (antibody, human IgG1, V domains shown)
VH: B8 VH
VL: B8 VL
modifications: LXR agonist linker-payload LP1 clicked to azido-PEG3-amine on Q295 and Q297 (EU) of the heavy chain constant region
notes: antibody-drug conjugate; human IgG1 Fc with N297Q (EU); also called H1H27732P-LP1
For the molecule B10, in experiment [1], the on-rate (kon) came out at 150000 M⁻¹ s⁻¹. Besides, in experiment [2], the equilibrium dissociation constant (Kd) is at most 0.066 nM, the dissociation rate constant (koff) is at most 1e-05 s⁻¹ and the t½ is at least 19.3 h.

B11: H2aM25685N (antibody, V domains shown)
VH: QVQLVQSGAEVREPGASVKLSCKVSGYTLTELSIHWVRQAPGKGLEWMGGFDPEEGETVYAQKFRGRVTLTEDISPDTAYMELSSLTSEDTAVYYCATPRYCNNGICYDYWGQGTLITVSS
VL: not shown
notes: as for B5
For B11, the binding result in experiment [5] is recorded as “no binding (tested: 100 nM)”.

B12: H1H27771P2-N297Q (antibody, V domains shown)
VH: EVQLVESGGGLVQPGGSLRLSCAASGFTFSSYGMNWVRQAPGKGLEWVSVISGSGGSTYYADSVKGRFTISRDNSKNTLYLQMNSLRAEDTAVYYCAKDRWTYYYDSSGSPFDYWGQGTLVTVSS
VL: not shown
notes: Human IgG1 Fc with N297Q; also called H1H27771P-N297Q
For the molecule B12, the “% Blocking” value in experiment [4] is -1%.

B13: H2aM21232N (antibody, V domains shown)
VH: QVQLQESGPGLVKPSETLSLTCTVSGGSISSYYWSWIRQPPGKGLEWIGYIYYSGSANYNPSLKSRVTISVDTSKNQFSLKLSSVTAADTAVYYCVRDRDLLLDHWGQGTLVTVSS
VL: not shown
notes: Human variable domains with mouse IgG2a Fc
For B13, the binding result in experiment [5] is on record as “no binding (tested: 100 nM)”.
